From publication PMC4938386, “Calcium Influx of Mast Cells Is Inhibited by Aptamers Targeting the First Extracellular Domain of Orai1” come the findings set out here.

For data set [1], the target named is Orai1 peptide (first extracellular domain) (UniProt Q96D31). The data set can be described thus: ELONA. The settings on record: 0.1 ug/well aptamer; lowest of six; value from stated range; SHCMK: 20 mM Hepes pH 7.35, 120 mM KCl, 1 mM CaCl2, 1 mM MgCl2; 37 C, 3 h (2 h for Kd); peptide-coated plates, wash with 0.05% Tween ….
The target in data set [2] is T1, Orai1 peptide (first extracellular domain) (UniProt Q96D31).
T1 chain: DADHDYPPGLL
Description: ELONA; SHCMK: 20 mM Hepes pH 7.35, 120 mM KCl, 1 mM CaCl2, 1 mM MgCl2; 37 C, 3 h (2 h for Kd); peptide-coated plates, wash with 0.05% Tween 20. The settings on record: tags: none stated; coated on polystyrene plate; label: biotin.

As for “TGCGAGCATCTCGCTATCAGAGTGAGGTGATTTGTGCATA [Aptamer Y8]”, in data set [1], the binding signal is 1.18 OD450.

For TCAAGCTTATGACCGAGCGCCGCGTGCC (ssDNA) [ONT1], the binding result in data set [2] is given as “no binding”.

As for TAGGATCCCCAGACCTGCCCGCCATGT (ssDNA) [ONT2], the binding result in data set [2] is “no binding”.

On to GGTACCGCAGAATTGGGAAGAGATAGA (ssDNA) [ONT3], for which the binding result in data set [2] is listed as “no binding”.
